The record followed here is PMC9314101.

The data set deals with PtrMYB074 (Populus trichocarpa, UniProt B9IEX5 1-371). Briefly: EMSA. (A gel shift assay detects complexes by their altered migration in electrophoresis.)

B1: PtrbHLH186 promoter W-box probe (dsDNA)
DNA 1: CTATAGTTTGACTGTA
DNA 2: TACAGTCAAACTATAG
Consider B1, for which the binding result is reported as “no binding”.
